# Experimental data from the supplement of paper PMC5998384.
# Legend:
# [1] = tested on: HeLa Kyoto; assay: melting temperature (median over replicates), in situ; higher = more thermally stable
# [2] = tested on: HeLa Kyoto; assay: solubility in G1/S (NP-40 vs SDS abundance) (log2 ratio); higher = more soluble; settings: cell cycle stage: G1/S
# [3] = tested on: HeLa Kyoto; assay: solubility change mitosis vs G1/S (difference of NP-40 vs SDS log2 ratios) (log2 ratio difference); higher = more soluble in mitosis
# [4] = tested on: HeLa Kyoto; assay: thermal stability score vs G1/S (z-score of summed log2 fold changes over temperatures); higher = more thermally stable than in G1/S
# [5] = cell cycle stage: early G1 (4.5 h after nocodazole release)
# 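For melting temperature (median over replicates), in situ in this document: HeLa Kyoto cells synchronized by double thymidine or nocodazole block, proteins quantified by TMT10plex mass spectrometry, three independent biological replicates.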
# 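For solubility change mitosis vs G1/S (difference of NP-40 vs SDS log2 ratios) in this document: synchronized HeLa Kyoto cells (double thymidine block for G1/S, nocodazole release for mitosis), protein amounts in NP-40 versus SDS lysates quantified by mass spectrometry, three biological replicates.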
# 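For solubility in G1/S (NP-40 vs SDS abundance) in this document: HeLa Kyoto cells arrested at G1/S by double thymidine block, proteins quantified by TMT10plex mass spectrometry in mild NP-40 versus SDS extracts, three biological replicates.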
# 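For thermal stability score vs G1/S (z-score of summed log2 fold changes over temperatures) in this document: synchronized HeLa Kyoto cells, proteins quantified by TMT10plex mass spectrometry, three biological replicates, mitosis taken 0.5 h after nocodazole release, G1/S directly after double thymidine block.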
# Sequence of ARFGAP2 (chain, as listed by the source): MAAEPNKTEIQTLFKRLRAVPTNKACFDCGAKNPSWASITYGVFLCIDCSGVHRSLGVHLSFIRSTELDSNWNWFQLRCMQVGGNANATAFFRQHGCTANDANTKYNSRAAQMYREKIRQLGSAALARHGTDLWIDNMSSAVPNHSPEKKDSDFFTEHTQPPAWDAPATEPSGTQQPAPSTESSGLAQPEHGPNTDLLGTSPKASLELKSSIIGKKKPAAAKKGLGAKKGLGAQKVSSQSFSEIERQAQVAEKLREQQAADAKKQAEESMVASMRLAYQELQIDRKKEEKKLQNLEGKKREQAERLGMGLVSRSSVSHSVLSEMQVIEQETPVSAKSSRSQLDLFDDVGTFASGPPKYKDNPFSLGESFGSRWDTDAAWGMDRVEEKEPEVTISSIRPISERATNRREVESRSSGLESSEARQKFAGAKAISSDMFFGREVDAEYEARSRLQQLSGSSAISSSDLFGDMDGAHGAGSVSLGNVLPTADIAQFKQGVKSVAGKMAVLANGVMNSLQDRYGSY
substance,measurement,setting,value
MGCIKSKGKDSLSDDGVDLKTQPVRNTERTIYVRDPTSNKQQRPVPESQLLPGQRFQTKDPEEQGDIVVALYPYDGIHPDDLSFKKGEKMKVLEEHGEWWKAKSLLTKKEGFIPSNYVAKLNTLETEEWFFKDITRKDAERQLLAPGNSAGAFLIRESETLKGSFSLSVRDFDPVHGDVIKHYKIRSLDNGGYYISPRITFPCISDMIKHYQKQADGLCRRLEKACISPKPQKPWDKDAWEIPRESIKLVKRLGAGQFGEVWMGYYNNSTKVAVKTLKPGTMSVQAFLEEANLMKTLQHDKLVRLYAVVTREEPIYIITEYMAKGSLLDFLKSDEGGKVLLPKLIDFSAQIAEGMAYIERKNYIHRDLRAANVLVSESLMCKIADFGLARVIEDNEYTAREGAKFPIKWTAPEAINFGCFTIKSDVWSFGILLYEIVTYGKIPYPGRTNADVMTALSQGYRMPRVENCPDELYDIMKMCWKEKAEERPTFDYLQSVLDDFYTATEGQYQQQP [LYN],melting temperature,[1]; cell cycle stage: G1/S,51.1 °C
same,melting temperature,[1]; cell cycle stage: mitosis,50.7 °C
same,solubility in G1/S (log2),[2],-0.416
same,solubility change mitosis (log2),[3],-0.0796
same,thermal stability score,[4]; [5],1.11
same,thermal stability score,[4]; cell cycle stage: mitosis,0.805
ARFGAP2,melting temperature,[1]; cell cycle stage: G1/S,49.6 °C
same,melting temperature,[1]; cell cycle stage: mitosis,49.4 °C
same,solubility in G1/S (log2),[2],0.205
same,solubility change mitosis (log2),[3],-0.11
same,thermal stability score,[4]; [5],-0.318
same,thermal stability score,[4]; cell cycle stage: mitosis,-0.233
MRLFVSDGVPGCLPVLAAAGRARGRAEVLISTVGPEDCVVPFLTRPKVPVLQLDSGNYLFSTSAICRYFFLLSGWEQDDLTNQWLEWEATELQPALSAALYYLVVQGKKGEDVLGSVRRALTHIDHSLSRQNCPFLAGETESLADIVLWGALYPLLQDPAYLPEELSALHSWFQTLSTQEPCQRAAETVLKQQGVLALRPYLQKQPQPSPAEGRAVTNEPEEEELATLSEEEIAMAVTAWEKGLESLPPLRPQQNPVLPVAGERNVLITSALPYVNNVPHLGNIIGCVLSADVFARYSRLRQWNTLYLCGTDEYGTATETKALEEGLTPQEICDKYHIIHADIYRWFNISFDIFGRTTTPQQTKITQDIFQQLLKRGFVLQDTVEQLRCEHCARFLADRFVEGVCPFCGYEEARGDQCDKCGKLINAVELKKPQCKVCRSCPVVQSSQHLFLDLPKLEKRLEEWLGRTLPGSDWTPNAQFITRSWLRDGLKPRCITRDLKWGTPVPLEGFEDKVFYVWFDATIGYLSITANYTDQWERWWKNPEQVDLYQFMAKDNVPFHSLVFPCSALGAEDNYTLVSHLIATEYLNYEDGKFSKSRGVGVFGDMAQDTGIPADIWRFYLLYIRPEGQDSAFSWTDLLLKNNSELLNNLGNFINRAGMFVSKFFGGYVPEMVLTPDDQRLLAHVTLELQHYHQLLEKVRIRDALRSILTISRHGNQYIQVNEPWKRIKGSEADRQRAGTVTGLAVNIAALLSVMLQPYMPTVSATIQAQLQLPPPACSILLTNFLCTLPAGHQIGTVSPLFQKLENDQIESLRQRFGGGQAKTSPKPAVVETVTTAKPQQIQALMDEVTKQGNIVRELKAQKADKNEVAAEVAKLLDLKKQLAVAEGKPPEAPKGKKKK [MARS],melting temperature,[1]; cell cycle stage: G1/S,49.1 °C
same,melting temperature,[1]; cell cycle stage: mitosis,49.4 °C
same,solubility in G1/S (log2),[2],0.171
same,solubility change mitosis (log2),[3],-0.109
same,thermal stability score,[4]; [5],1.07
same,thermal stability score,[4]; cell cycle stage: mitosis,4.3
MGKIALQLKATLENITNLRPVGEDFRWYLKMKCGNCGEISDKWQYIRLMDSVALKGGRGSASMVQKCKLCARENSIEILSSTIKPYNAEDNENFKTIVEFECRGLEPVDFQPQAGFAAEGVESGTAFSDINLQEKDWTDYDEKAQESVGIYEVTHQFVKC [C1ORF123],melting temperature,[1]; cell cycle stage: G1/S,52.2 °C
same,melting temperature,[1]; cell cycle stage: mitosis,52.1 °C
same,solubility in G1/S (log2),[2],-0.207
same,solubility change mitosis (log2),[3],-0.125
same,thermal stability score,[4]; [5],-0.132
same,thermal stability score,[4]; cell cycle stage: mitosis,0.084
MAYAYLFKYIIIGDTGVGKSCLLLQFTDKRFQPVHDLTIGVEFGARMITIDGKQIKLQIWDTAGQESFRSITRSYYRGAAGALLVYDITRRDTFNHLTTWLEDARQHSNSNMVIMLIGNKSDLESRREVKKEEGEAFAREHGLIFMETSAKTASNVEEAFINTAKEIYEKIQEGVFDINNEANGIKIGPQHAATNATHAGNQGGQQAGGGCC [RAB2A],melting temperature,[1]; cell cycle stage: G1/S,59.9 °C
same,melting temperature,[1]; cell cycle stage: mitosis,61 °C
same,solubility in G1/S (log2),[2],-0.194
same,solubility change mitosis (log2),[3],-0.118
same,thermal stability score,[4]; [5],-2.08
same,thermal stability score,[4]; cell cycle stage: mitosis,-3.49
MSVQVVSAAAAAKVPEVELKDLSPSEAESQLGLSTAAVGAMAPPAGGGDPEAPAPAAERPPVPGPGSGPAAALSPAAGKVPQASAMKRSDPHHQHQRHRDGGEALVSPDGTVTEAPRTVKKQIQFADQKQEFNKRPTKIGRRSLSRSISQSSTDSYSSAASYTDSSDDETSPRDKQQKNSKGSSDFCVKNIKQAEFGRREIEIAEQEMPALMALRKRAQGEKPLAGAKIVGCTHITAQTAVLMETLGALGAQCRWAACNIYSTLNEVAAALAESGFPVFAWKGESEDDFWWCIDRCVNVEGWQPNMILDDGGDLTHWIYKKYPNMFKKIKGIVEESVTGVHRLYQLSKAGKLCVPAMNVNDSVTKQKFDNLYCCRESILDGLKRTTDMMFGGKQVVVCGYGEVGKGCCAALKAMGSIVYVTEIDPICALQACMDGFRLVKLNEVIRQVDIVITCTGNKNVVTREHLDRMKNSCIVCNMGHSNTEIDVASLRTPELTWERVRSQVDHVIWPDGKRIVLLAEGRLLNLSCSTVPTFVLSITATTQALALIELYNAPEGRYKQDVYLLPKKMDEYVASLHLPTFDAHLTELTDEQAKYLGLNKNGPFKPNYYRY [AHCYL2],melting temperature,[1]; cell cycle stage: G1/S,60.1 °C
same,melting temperature,[1]; cell cycle stage: mitosis,57.5 °C
same,solubility in G1/S (log2),[2],-0.105
same,solubility change mitosis (log2),[3],-0.0168
same,thermal stability score,[4]; [5],-1.59
same,thermal stability score,[4]; cell cycle stage: mitosis,-3.95
MCAARLAAAAAAAQSVYAFSARPLAGGEPVSLGSLRGKVLLIENVASLUGTTVRDYTQMNELQRRLGPRGLVVLGFPCNQFGHQENAKNEEILNSLKYVRPGGGFEPNFMLFEKCEVNGAGAHPLFAFLREALPAPSDDATALMTDPKLITWSPVCRNDVAWNFEKFLVGPDGVPLRRYSRRFQTIDIEPDIEALLSQGPSCA [GPX1],melting temperature,[1]; cell cycle stage: G1/S,56.8 °C
same,melting temperature,[1]; cell cycle stage: mitosis,56.6 °C
same,solubility in G1/S (log2),[2],0.559
same,solubility change mitosis (log2),[3],-0.15
same,thermal stability score,[4]; [5],1.13
same,thermal stability score,[4]; cell cycle stage: mitosis,-0.307
MDDIFTQCREGNAVAVRLWLDNTENDLNQGDDHGFSPLHWACREGRSAVVEMLIMRGARINVMNRGDDTPLHLAASHGHRDIVQKLLQYKADINAVNEHGNVPLHYACFWGQDQVAEDLVANGALVSICNKYGEMPVDKAKAPLRELLRERAEKMGQNLNRIPYKDTFWKGTTRTRPRNGTLNKHSGIDFKQLNFLTKLNENHSGELWKGRWQGNDIVVKVLKVRDWSTRKSRDFNEECPRLRIFSHPNVLPVLGACQSPPAPHPTLITHWMPYGSLYNVLHEGTNFVVDQSQAVKFALDMARGMAFLHTLEPLIPRHALNSRSVMIDEDMTARISMADVKFSFQCPGRMYAPAWVAPEALQKKPEDTNRRSADMWSFAVLLWELVTREVPFADLSNMEIGMKVALEGLRPTIPPGISPHVCKLMKICMNEDPAKRPKFDMIVPILEKMQDK [ILK],melting temperature,[1]; cell cycle stage: G1/S,50.1 °C
same,melting temperature,[1]; cell cycle stage: mitosis,50 °C
same,solubility in G1/S (log2),[2],0.274
same,solubility change mitosis (log2),[3],-0.135
same,thermal stability score,[4]; [5],1.36
same,thermal stability score,[4]; cell cycle stage: mitosis,1.76
MASMAAAIAASRSAVMSGNRPLDDRERKRFTYFSSLSPMARKIMQDKEKIREKYGPEWARLPPAQQDEIIDRCLVGPRAPAPRDPGDSEELTRFPGLRGPTGQKVVRFGDEDLTWQDEHSAPFSWETKSQMEFSISALSIQEPSNGTAASEPRPLSKASQGSQALKSSQGSRSSSLDALGPTRKEEEASFWKINAERSRGEGPEAEFQSLTPSQIKSMEKGEKVLPPCYRQEPAPKDREAKVERPSTLRQEQRPLPNVSTERERPQPVQAFSSALHEAAPSQLEGKLPSPDVRQDDGEDTLFSEPKFAQVSSSNVVLKTGFDFLDNW [C1ORF198],melting temperature,[1]; cell cycle stage: G1/S,51.6 °C
same,melting temperature,[1]; cell cycle stage: mitosis,53.2 °C
same,solubility in G1/S (log2),[2],-0.228
same,solubility change mitosis (log2),[3],0.253
same,thermal stability score,[4]; [5],-0.542
same,thermal stability score,[4]; cell cycle stage: mitosis,-1
MATLITSTTAATAASGPLVDYLWMLILGFIIAFVLAFSVGANDVANSFGTAVGSGVVTLKQACILASIFETVGSVLLGAKVSETIRKGLIDVEMYNSTQGLLMAGSVSAMFGSAVWQLVASFLKLPISGTHCIVGATIGFSLVAKGQEGVKWSELIKIVMSWFVSPLLSGIMSGILFFLVRAFILHKADPVPNGLRALPVFYACTVGINLFSIMYTGAPLLGFDKLPLWGTILISVGCAVFCALIVWFFVCPRMKRKIEREIKCSPSESPLMEKKNSLKEDHEETKLSVGDIENKHPVSEVGPATVPLQAVVEERTVSFKLGDLEEAPERERLPSVDLKEETSIDSTVNGAVQLPNGNLVQFSQAVSNQINSSGHYQYHTVHKDSGLYKELLHKLHLAKVGDCMGDSGDKPLRRNNSYTSYTMAICGMPLDSFRAKEGEQKGEEMEKLTWPNADSKKRIRMDSYTSYCNAVSDLHSASEIDMSVKAEMGLGDRKGSNGSLEEWYDQDKPEVSLLFQFLQILTACFGSFAHGGNDVSNAIGPLVALYLVYDTGDVSSKVATPIWLLLYGGVGICVGLWVWGRRVIQTMGKDLTPITPSSGFSIELASALTVVIASNIGLPISTTHCKVGSVVSVGWLRSKKAVDWRLFRNIFMAWFVTVPISGVISAAIMAIFRYVILRM [SLC20A1],melting temperature,[1]; cell cycle stage: mitosis,55.9 °C
same,solubility in G1/S (log2),[2],-0.24
same,solubility change mitosis (log2),[3],-0.149
same,thermal stability score,[4]; [5],0.26
same,thermal stability score,[4]; cell cycle stage: mitosis,-0.79
